{"source": "patent US5882887", "key": {"collagen (type III) [1]": {"molecular_target": "collagen (type III)"}, "collagen (type III) [2]": {"molecular_target": "collagen (type III)", "remark": "listed apart in the source"}}, "data": [{"binder": "recombinant Asp-Pallidipin (protein of SEQ ID NO:1) (protein) DEECELMPPGDNFDLEKYFSIPHVYVTHSRNGPKEQVCREYKTTKNSDGTTTTTLVTSDYKTGGKPYHSELKCTNTPKSGGKGQFSVECEVPNGNGGKKKIHVETSVIATDYKNYALLQSCTKTESGIADDVLLLQTKKEGVDPGVTSVLKSVNWSLDDWFSRSKVNCDNMK", "values": [{"measurement": "attachment of 51Cr-labelled MTLn3 rat mammary tumor cells to collagen-coated wells (cpm)", "setting": "collagen (type III) [1]", "result": 1080, "unit": "cpm"}, {"measurement": "adhesion of metastatic tumor cells to collagen", "setting": "collagen (type III) [2]", "result": 100, "unit": "nmol/L"}, {"measurement": "collagen-induced aggregation of human platelets in platelet-rich plasma (aggregometer, maximum value)", "setting": "collagen", "result": 50, "unit": "nM"}]}]}
